Patent US20130089497A1 (Genentech, published 2013)

Columns and labels:
[1] = molecular target: T1, gD tagged human FcRH2 on SVT2 cells (human, UniProt Q96LA5 20-508); assay: FACS, SVT2.MSCV.gD.FcRH2 cells, PE secondary antibody
T1 construct: whole, on cells; also called huFcRH2; not shown: gD tag; the construct for this FcRH is not described
T1 sequence (looked up): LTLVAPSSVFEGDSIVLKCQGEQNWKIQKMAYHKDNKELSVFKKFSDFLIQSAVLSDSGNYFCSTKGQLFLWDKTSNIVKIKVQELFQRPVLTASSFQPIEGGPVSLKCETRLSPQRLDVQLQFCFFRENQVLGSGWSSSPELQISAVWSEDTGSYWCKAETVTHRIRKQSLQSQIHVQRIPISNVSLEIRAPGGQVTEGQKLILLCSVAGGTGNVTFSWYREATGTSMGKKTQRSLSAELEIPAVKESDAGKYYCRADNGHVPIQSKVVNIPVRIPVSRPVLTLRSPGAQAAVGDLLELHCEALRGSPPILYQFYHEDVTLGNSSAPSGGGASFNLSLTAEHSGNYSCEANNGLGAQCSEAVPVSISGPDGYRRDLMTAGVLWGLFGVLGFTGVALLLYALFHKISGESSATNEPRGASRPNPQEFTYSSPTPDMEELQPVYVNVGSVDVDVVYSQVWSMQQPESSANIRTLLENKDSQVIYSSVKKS

[2] = molecular target: T2, gD tagged human FcRH6 on SVT2 cells (human, UniProt Q6DN72 20-434); assay: FACS, SVT2.MSCV.gD.FcRH6 cells, PE secondary antibody
T2 construct: whole, on cells; also called huFcRH6; not shown: gD tag; the construct for this FcRH is not described
T2 sequence (looked up): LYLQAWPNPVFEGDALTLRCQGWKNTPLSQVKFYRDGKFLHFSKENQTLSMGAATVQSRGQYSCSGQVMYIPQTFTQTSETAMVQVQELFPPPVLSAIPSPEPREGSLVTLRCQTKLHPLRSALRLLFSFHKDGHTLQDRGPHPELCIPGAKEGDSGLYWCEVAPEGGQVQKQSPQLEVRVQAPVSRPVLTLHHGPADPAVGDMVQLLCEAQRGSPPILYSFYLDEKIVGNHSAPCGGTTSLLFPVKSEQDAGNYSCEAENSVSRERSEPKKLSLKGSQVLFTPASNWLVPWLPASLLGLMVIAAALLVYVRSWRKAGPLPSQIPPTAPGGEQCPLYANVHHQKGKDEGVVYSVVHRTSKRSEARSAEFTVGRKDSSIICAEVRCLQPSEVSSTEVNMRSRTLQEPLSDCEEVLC

[3] = molecular target: T3, human FcRH5 on stably transfected cells (BJAB.huFcRH5, OPM2.huFcRH5) (human, UniProt Q96RD9 16-977); assay: Scatchard analysis: 0.5 nM 125I-labeled antibody competed with the unlabeled antibody (50 to 0.02 nM) on BJAB.huFcRH5 cells, 4 h at 4 C; St. Error 0.007
T3 construct: also called BJAB-FcRH5; OPM2-FcRH5
T3 chain: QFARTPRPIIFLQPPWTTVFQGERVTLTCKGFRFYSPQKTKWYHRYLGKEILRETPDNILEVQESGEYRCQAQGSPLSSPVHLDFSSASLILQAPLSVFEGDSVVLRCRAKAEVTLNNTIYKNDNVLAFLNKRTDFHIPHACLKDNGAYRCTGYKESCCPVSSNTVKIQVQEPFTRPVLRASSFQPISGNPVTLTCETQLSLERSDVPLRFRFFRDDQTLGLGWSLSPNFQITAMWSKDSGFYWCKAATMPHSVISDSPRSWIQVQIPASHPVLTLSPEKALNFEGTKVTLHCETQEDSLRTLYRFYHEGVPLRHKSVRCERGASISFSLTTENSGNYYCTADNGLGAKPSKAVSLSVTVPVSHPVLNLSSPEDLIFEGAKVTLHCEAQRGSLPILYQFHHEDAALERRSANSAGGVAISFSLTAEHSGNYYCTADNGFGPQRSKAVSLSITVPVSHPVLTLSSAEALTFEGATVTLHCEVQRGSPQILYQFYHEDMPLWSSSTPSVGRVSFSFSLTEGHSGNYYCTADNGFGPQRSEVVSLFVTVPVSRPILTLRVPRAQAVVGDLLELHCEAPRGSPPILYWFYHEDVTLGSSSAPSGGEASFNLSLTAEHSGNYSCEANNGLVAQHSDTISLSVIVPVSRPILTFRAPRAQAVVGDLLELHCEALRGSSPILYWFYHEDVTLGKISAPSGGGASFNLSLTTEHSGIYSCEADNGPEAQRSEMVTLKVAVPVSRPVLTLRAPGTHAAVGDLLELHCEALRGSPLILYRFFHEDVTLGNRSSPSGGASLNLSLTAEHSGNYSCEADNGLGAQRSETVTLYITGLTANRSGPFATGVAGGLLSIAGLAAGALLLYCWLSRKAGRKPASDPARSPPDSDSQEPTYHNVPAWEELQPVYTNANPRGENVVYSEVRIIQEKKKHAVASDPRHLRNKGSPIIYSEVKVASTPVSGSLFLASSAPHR

B1: murine monoclonal antibody anti-FcRH5-13G9 (antibody, V domains shown)
VH: EVQLVQSGPELKKPGETVKISCKASGYTFTNYGMNWVKQAPGKGLKWMGWVNTYTGEPTYTDDFKGRFAFSVETSASTVFLQINNLKNEDTATYFCARRSIPYYYAMDYWGQGTSLT
VL: DIVMTQSQKIMSTSVGDRVNVTCKASQNVGSNVAWYHQKPGQSPKALIYSASYRYSGVPDRFTGSGSGTDFTLTISNVQSEDLAEYFCQQYKTWTFGGGTKLEIKR
notes: Whole murine IgG from hybridoma; also called 13G9.1.1; mu13G9
binding result [1]: no binding (tested: 1.0 ug per about 10^6 cells (p-1120))
binding result [2]: no binding (tested: 1.0 ug per about 10^6 cells (p-1120))
Kd [3]: 0.13 nM
